Data as given in PMC3413365 (The Journal of Cell Biology, 2012).

B1: Lucifer yellow–labeled BiP substrate peptide (NH2-HTFPAVLGSC-COOH) (peptide)
peptide: H-HTFPAVLGSC-OH
modifications: also: Lucifer yellow iodoacetamide label, residue not given here

Columns and labels:
Assay in all cases: fluorescence polarisation
[1] = biological target: B1
[2] = biological target: T1, H6-tagged hamster BiP, wild type (hamster, UniProt G3I8R9 19-654)
BiP^R470E [3] = biological target: T2, BiP^R470E (hamster, UniProt G3I8R9 19-654, R470E)
Lidless BiP (Δ554-654) = Lidless BiP (Δ554-654) (hamster, UniProt G3I8R9 19-553)
BiP^Δ(554–654);R470E = BiP^Δ(554–654);R470E (hamster, UniProt G3I8R9 19-553, R470E)
[4] = biological target: T1, H6-tagged hamster BiP, wild type; remark: listed apart in the source
BiP^R470E [5] = biological target: T2, BiP^R470E; remark: listed apart in the source

T2 sequence (G3I8R9 19-654 R470E): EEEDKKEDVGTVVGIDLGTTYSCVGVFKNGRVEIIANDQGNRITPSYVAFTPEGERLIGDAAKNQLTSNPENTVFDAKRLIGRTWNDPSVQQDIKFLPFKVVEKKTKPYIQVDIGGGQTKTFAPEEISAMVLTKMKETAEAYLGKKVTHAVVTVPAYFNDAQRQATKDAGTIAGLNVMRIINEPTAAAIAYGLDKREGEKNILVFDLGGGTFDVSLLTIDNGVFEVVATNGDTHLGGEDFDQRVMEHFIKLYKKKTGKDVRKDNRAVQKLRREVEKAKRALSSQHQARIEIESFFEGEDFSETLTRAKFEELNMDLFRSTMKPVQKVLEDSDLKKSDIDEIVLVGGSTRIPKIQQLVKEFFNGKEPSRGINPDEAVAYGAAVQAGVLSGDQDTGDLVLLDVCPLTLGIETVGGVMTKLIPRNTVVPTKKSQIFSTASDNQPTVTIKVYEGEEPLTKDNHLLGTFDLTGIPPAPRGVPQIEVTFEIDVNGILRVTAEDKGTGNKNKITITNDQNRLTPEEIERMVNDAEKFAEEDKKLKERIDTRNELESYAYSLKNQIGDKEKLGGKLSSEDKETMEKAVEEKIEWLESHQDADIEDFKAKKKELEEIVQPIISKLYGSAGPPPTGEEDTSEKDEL
T1 sequence (G3I8R9 19-654): as the sequence (G3I8R9 19-654 R470E) above, with E452R counted along it
BiP^Δ(554–654);R470E, sequence (G3I8R9 19-553 R470E): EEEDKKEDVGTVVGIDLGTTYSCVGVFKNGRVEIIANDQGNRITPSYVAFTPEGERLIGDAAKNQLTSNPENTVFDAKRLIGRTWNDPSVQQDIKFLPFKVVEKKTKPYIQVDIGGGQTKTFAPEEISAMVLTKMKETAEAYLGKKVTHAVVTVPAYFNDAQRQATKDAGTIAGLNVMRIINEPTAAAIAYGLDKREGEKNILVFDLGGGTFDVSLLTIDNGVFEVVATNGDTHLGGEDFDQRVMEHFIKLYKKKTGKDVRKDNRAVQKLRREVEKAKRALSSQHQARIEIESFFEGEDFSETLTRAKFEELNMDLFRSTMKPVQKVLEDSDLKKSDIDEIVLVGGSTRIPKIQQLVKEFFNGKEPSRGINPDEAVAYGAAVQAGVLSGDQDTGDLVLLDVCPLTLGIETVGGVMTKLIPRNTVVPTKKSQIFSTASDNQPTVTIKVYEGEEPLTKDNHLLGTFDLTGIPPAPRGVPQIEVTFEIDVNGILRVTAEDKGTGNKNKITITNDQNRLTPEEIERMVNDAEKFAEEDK
Lidless BiP (Δ554-654), sequence (G3I8R9 19-553, stated change not applied): as the sequence (G3I8R9 19-553 R470E) above, with E452R counted along it

fold change of the peptide off-rate against wild type [1]	koff [2]	koff (BiP^R470E [3])	koff (Lidless BiP (Δ554-654))	koff (BiP^Δ(554–654);R470E)	Kd [4]	Kd (BiP^R470E [5])	Binder
3 fold	–	–	–	–	–	–	BiP^R470K (natural protein) not shown
3 fold	–	–	–	–	–	–	BiP^R492K (natural protein) not shown
–	0.0002 s⁻¹	0.0074 s⁻¹	0.0017 s⁻¹	0.00328 s⁻¹	13 µM	9 µM	B1
